Data reported in the DeepSol protein solubility set.

test: soluble on expression in E. coli; label from the status in PepcDB or PDB records

**Q.** Which “soluble on expression in E. coli” value does the source give for “MGSDKIHHHHHHNNDDDGTNKAQEIAGKYEGYSIGNCAMFTDYVMGEKSVATIVPNEDGTINVTYDSGSGEFKLNNIKVTSKTFEGSGQVELSMNDKPAGAKDFTLTGSIDEQQKLTLKVNVPSVMGGLTIEFIQGTLPISYHVSGTYNKEANLSVSVGSTTYPDITDCKVSIKRSSDDTVELTLKGLSNLNSSQTGRAMNLGDFTVTDVKVTSTDNSIFKIEGSINTTDTNNTPITGTLSGTVSNSETNITFTFKPGAMPIDITAMFKGKK” here?
**A.** Its value is “not soluble”.

**Q.** For “MDINGGGATLPQALYQTSGVLTAGFAQYIGVGSGNGKAAFLNNDYTKFQAGVTNKNVHWAGSDSKLSATELSTYASAKQPTWGKLIQVPSVGTSVAIPFNKSGSAAVNLSVQELCGVFSGRINTWDGISGSGRTGPIVVVYRSESSGTTELFTRFLNAKCNAETGNFAVTTTFGTSFSGGLPAGAVAATGSQGVMTALAAGDGRITYMSPDFAAPTLAGLDDATKVARVGKNVATNTQGVSPAAANVSAAIGAVPVPAAADRSNPDAWVPVFGPDNTAGVQPYPTSGYPILGFTNLIFSQCYADATQTTQVRDFFTKHYGASNNNDAAITANAFVPLPTAWKATVRASFLTASNALSIGNTNVCNGIGRPLLEAAHHHHHH”, which “soluble on expression in E. coli” value is on record?
**A.** Its value is “soluble”.

**Q.** For “EPAQVRLLSSDFVLPGKHQRLAGWAREAGVELRGLRLGIGEAPPGEWLDGGNLLILDTPRPTDRAQVEEALGERLQGGTQPWIRVGGGPPGFGNLPAALGGRLVGYYANGGEANLRRLFEAVRRWHAGLTVDALPAPQPLAQAGFYHPDAPAPFAVLADYLAWGASRWASDAPRIAFLIPRGAIADAQTGAIDELLRRSERHGQAPLAVWFDDSDPEALRKSFAGADVQALVNLQHLQNGPARRAEFLALDVPVLQTLGYRDGNEADWLAAASGVAPRTAAAFLGMPETWGMSDPLVISALENGEPKLMAGQAEALLDKLDRLLRLRRLPAADKHLALMFWNHPEGEKNVAASHLNVPASLARLGEALRAAGYRVATSDESALIDTAQRLLGGYYRPQTLDALYRDGLAASLPLDAYLHWFEALPADLREEMRARWGDPRRHWALRDIDGQRRFVFPAARLGNLLLLPQPPRAGRPGEAYHDSAVPPDHLYLAVYQFVREGFGADALIHFGTHGTQEWLPGKDRGLAVGDYPLRALGDLPVFYPYIQDNVGEAIQARRRGRAVTVSHQTPSFAPAGLYDELRDLHQLIHEYQQLDEGAVRERSAEQIRAAVRAAHMNDDLGWSEAAMHEDFPAFLGVLHDHLHRLAGSAMPLGLHTFGVAASPELRLGTVMQQLGEPYYRALGLDPDELFAADFRALREGRAYRTLQRYLRDGGEIAKVADPRLREQLLRARELDRQLADTGELEALLAGLAGRFVAPGPGGDPIRNPQVPSGRNLFAFEADKVPTRAAYEAGAEAFGQLLESYRAEHQGRAPEKLAFSLWSSETMRHLGIVESQALHALGLRPRWDAGGRLLALDIVPAAELGRPRVDVVLQVTSVYRDQFDGFMRLLAEAIERLAALDEPGNPLARNSQALERRLRERGVEAPLAQRLSRLRLFGNAPGDYGTGVTQLTLDSTRWDDDSALAEQFLGRLQYAYGSRDWGVKLDGGNLFAEQLKGVQAAILSRSSTLNGVLSTDHPFEYLGGLSLAVRHLDGASPALYIADLRQRQPRTTAAAQFLASELRGRYLSPQWIAAMQREGYAGSLEMLDLANNLWGWQAADRIMVRADQWQALHDTFVMDRRELGLAEWFETHNPTAQAQIIARMAEAIRKGYWDASEQTRRELAERWRQLAAAGAGEVGAATTREFIERMAGGFGEAAAQAEGAAASGAGETVSGRVLEEVAPPPSGEPQ”, which “soluble on expression in E. coli” value is on record?
**A.** The value was “not soluble”.

**Q.** Which “soluble on expression in E. coli” value does the source give for “GSMVENSELRKAGLKVTLPRVKILQMLDSAEQRHMSAEDVYKALMEAGEDVGLATVYRVLTQFEAAGLVVRHNFDGGHAVFELADSGHHDHMVCVDTGEVIEFMDAEIEKRQKEIVRERGFELVDHNLVLYVRKKK” here?
**A.** The value was “soluble”.

**Q.** With “MKTKFYDYQGEHLILYFAGWGTPPDAVNHLILPENHDLLICYDYQDLNLDFDLSAYRHIRLVAWSMGVWVAERVLQGIRLKSATAVNGTGLPCDDSFGIPYAIFKGTLENLTENTRLKFERRICGDKASFERYQLFPARPFDEIHQELTALFAMIQQDKRIDLIHWANAWVSSRDKIFTPANQHQYWALRCAVQEIEGEHYVFSRFTHWSALWDH” as the sequence, how does the “soluble on expression in E. coli” value read?
**A.** Its value is “not soluble”.

**Q.** With “MNVRVLVVEDERDLADLITEALKKEMFTVDVCYDGEEGMYMALNEPFDVVILDIMLPVHDGWEILKSMRESGVNTPVLMLTALSDVEYRVKGLNMGADDYLPKPFDLRELIARVRALIRRKSESKSTKLVCGDLILDTATKKAYRGSKEIDLTKKEYQILEYLVMNKNRVVTKEELQEHLWSFDDEVFSDVLRSHIKNLRKKVDKGFKKKIIHTVRGIGYVARDE” as the sequence, how does the “soluble on expression in E. coli” value read?
**A.** The value was “soluble”.
